Measured values published in US20130174289A1, “Na+/Mg2+ Exchanger” (FBN - Leibnitz-Institut fur Nutztierbiologie, published 2013).
Positions count from the first letter of the chain named.

B1: Kunitz-type protease inhibitor 2 (other)
chain: ADRERSIHDFCLVSKVVGRCRASMPRWWYNVTDGSCQLFVYGGCDGNSNNYLTKEECLKKCATVTENATGDLATSRNAADSSVPSAPRRQDSEDHSSDMFNYEEYCTANAVTGPCRASFPRWYFDVERNSCNNFIYGGCRGNKNSYRSEEACMLRCFRQQENPPLPLGSKVVVLAGLFVMVLILFLGASMVYLIRVARRNQERALRTVWSSGDDKEQLVKNTYVL
B2: Peptidyl-prolyl cis-trans isomerase B (enzyme)
chain: not shown
B3: Probable ergosterol biosynthetic protein 28 (other)
chain: MSRFLNVLRSWLVMVSIIAMGNTLQSFRDHTFLYEKLYTGKPNLVNGLQARTFGIWTLLSSVIRCLCAIDIHNKTLYHITLWTFLLALGHFLSELFVYGTAAPTIGVLAPLMVASFSILGMLVGLRYLEVEPVSRQKKRN
B4: Protein disulfide-isomerase A6 (enzyme)
chain: LYSSSDDVIELTPSNFNREVIQSDSLWLVEFYAPWCGHCQRLTPEWKKAATALKDVVKVGAVDADKHHSLGGQYGVQGFPTIKIFGSNKNRPEDYQGGRTGEAIVDAALSALRQLVKDRLGGRSGGYSSGKQGRSDSSSKKDVIELTDDSFDKNVLDSEDVWMVEFYAPWCGHCKNLEPEWAAAASEVKEQTKGKVKLAAVDATVNQVLASRYGIRGFPTIKIFQKGESPVDYDGGRTRSDIVSRALDLFSDNAPPPELLEIINEDIAKRTCEEHQLCVVAVLPHILDTGAAGRNSYLEVLLKLADKYKKKMWGWLWTEAGAQSELETALGIGGFGYPAMAAINARKMKFALLKGSFSEQGINEFLRELSFGRGSTAPVGGGAFPTIVEREPWDGRDGELPVEDDIDLSDVELDDLGKDEL
B5: Protein YIPF6 (other)
chain: MAEAEESPGDPGTASPRPLFAGLSDISISQDIPVEGEITIPMRSRIREFDSSTLNESVRNTIMRDLKAVGKKFMHVLYPRKSNTLLRDWDLWGPLILCVTLALMLQRDSADSEKDGGPQFAEVFVIVWFGAVTITLNSKLLGGNISFFQSLCVLGYCILPLTVAMLICRLVLLADPGPVNFMVRLFVVIVMFAWSIVASTAFLADSQPPNRRALAVYPVFLFYFVISWMILTFTPQ
B6: Signal peptidase complex subunit 1 (other)
chain: MARGGDTGCTGPSETSASGAVAIAFPGLEGPPADAQYQTLALTVPKSWSPSPRSLPPALSCPPPQPAMLEHLSSLPTQMDYKGQKLAEQMFQGIILFSAIVGFIYGYVAEQFGWTVYIVMAGFAFSCLLTLPPWPIYRRHPLKWLPVQESSTDDKKPGERKIKRHAKNN
B7: Translocon-associated protein subunit gamma (other)
chain: MAPKGSSKQQSEEDLLLQDFSRNLSAKSSALFFGNAFIVSAIPIWLYWRIWHMDLIQSAVLYSVMTLVSTYLVAFAYKNVKFVLKHKVAQKREDAVSKEVTRKLSEADNRKMSRKEKDERILWKKNEVADYEATTFSIFYNNTLFLVVVIVASFFILKNFNPTVNYILSISASSGLIALLSTGSK
B8: Transmembrane protein 147 (other)
chain: MTLFHFGNCFALAYFPYFITYKCSGLSEYNAFWKCVQAGVTYLFVQLCKMLFLATFFPTWEGGIYDFIGEFMKASVDVADLIGLNLVMSRNAGKGEYKIMVAALGWATAELIMSRCIPLWVGARGIEFDWKYIQMSIDSNISLVHYIVASAQVWMITRYDLYHTFRPAVLLLMFLSVYKAFVMETFVHLCSLGSWAALLARAVVTGLLALSTLALYVAVVNVHS
B9: 3-beta-hydroxysteroid-Delta(8), Delta(7)-isomerase (Rattus norvegicus) (enzyme)
chain: MTTNMLPLHPYWPRHLRLDNFVPNDLPTWHILVGLFSFSGVLIVITWLLSSRVSVVPLGTGRRLALCWFAVCTFIHLVIEGWFSFYHEILLEDQAFLSQLWKEYSKGDSRYILSDGFIVCMESVTACLWGPLSLWVVIAFLRHQPFRFVLQLVVSVGQIYGDVLYFLTELRDGFQHGELGHPLYFWFYFVIMNAIWLVIPGILVFDAIKHLTNAQSMLDNKVMKIKSKHN
B10: Transmembrane protein 14A (other)
chain: MDLIGFGYAALVTFGSIFGYKRRGGVPSLIAGLFVGCLAGYGAYRVSNDKRDVKVSLFTAFFLATIMGVRFKRSKKIMPAGLVAGLSLMMILRLVLLLL
B11: Uncharacterized protein C10orf35 (other)
chain: MVRILANGEIVQDDDPRVRTTTQPPRGSIPRQSFFNRGHGAPPGGPGPRQQQAGARLGAAQSPFNDLNRQLVNMGFPQWHLGNHAVEPVTSILLLFLLMMLGVRGLLLVGLVYLVSHLSQR
B12: Uncharacterized protein C4orf3 (other)
chain: MEVDAPGVDGRDGLRERRGFSEGGRQNFDVRPQSGANGLPKHSYWLDLWLFILFDVVVFLFVYFLP
B13: UPF0414 transmembrane protein C20orf30 (other)
chain: MMPSRTNLATGIPSSKVKYSRLSSTDDGYIDLQFKKTPPKIPYKAIALATVLFLIGAFLIIIGSLLLSGYISKGGADRAVPVLIIGILVFLPGFYHLRIAYYASKGYRGYSYDDIPDFDD
B14: UPF0480 protein C15orf24 homolog (other)
chain: SEVPGAAAEGSGGSGVGIGDRFKIEGRAVVPGVKPQDWISAARVLVDGEEHVGFLKTDGSFVVHDIPSGSYVVEVVSPAYRFDPVRVDITSKGKMRARYVNHIKTSEVVRLPYPLQMKSSGPPSYFIKRESWGWTDFLMNPMVMMMVLPLLIFVLLPKVVNTSDPDMRREMEQSMNMLNSNHELPDVSEFMTRLFSSKSSGKSSSGSSKTGKSGAGKRR
B15: UPF0480 protein C15orf24 (other)
chain: B14 chain with H102Y
B16: ATP synthase subunit a (Cricetulus griseus) (other)
chain: MNENLFSSFITPTLMGLPIIILIIMFPPVIMTSSKRLVNNRFHTFQQWLIKLITKQMMAIHSPKGRTWSLMLASLIIFIGSTNLLGLLPHTFTPTTQLSMNLGMAIPPWAGAVILGFRHKMKDSLAHFLPQGTPIPLIPMLVIIETISLFIQPMALAVRLTANITAGHLLMHLIGGATLVLTSISLPTAMITFIILIMLTILEFAVALIQAYVFTLLVSLYLHDNT
B17: ATP synthase subunit a (Homo sapiens) (other)
chain: MNENLFASFIAPTILGLPAAVLIILFPPLLIPTSKYLINNRLITTQQWLIKLTSKQMMTMHNTKGRTWSLMLVSLIIFIATTNLLGLLPHSFTPTTQLSMNLAMAIPLWAGTVIMGFRSKIKNALAHFLPQGTPTPLIPMLVIIETISLLIQPMALAVRLTANITAGHLLMHLIGSATLAMSTINLPSTLIIFTILILLTILEIAVALIQAYVFTLLVSLYLHDNT
B18: ATP synthase subunit a (Pan troglodytes) (other)
chain: MNENLFASFAAPTILGLPAAVLIILFPPLLVPTSKHLINNRLITTQQWLIQLTSKQMMTMHSTKGRTWSLMLVSLIIFITTTNLLGLLPHSFTPTTQLSMNLAMAIPLWAGAVVMGFRFKTKNALAHFLPQGTPTPLIPMLVIIETISLLIQPMALAVRLTANITAGHLLMHLIGSATLALSTINLPYALIIFTILILLTILEIAVALIQAYVFTLLVSLYLHDNT
B19: ATP synthase subunit a (Tachyglossus aculeatus aculeatus) (other)
chain: MNENLFASFITPTILGISILPLIMIFPCLLFSAPNRWMPNRLVALQLWLVRMVTKQMMSMHNKQGRMWTLMLITLIMFIASTNLLGLLPYTFTPTTQLSMNMGMAVPLWLGTVLMGFRNKPKSSLAHFLPQGTPTPLIPMLIIIETISLFIQPVALAVRLTANITAGHLLIHLIGSATLALSSISLTVSTITFTILFLLTILEIAVALIQAYVFTLLVSLYLHDNT
B20: B-cell receptor-associated protein 31 (other)
chain: MSLQWTAVATFLYAEVFVVLLLCIPFISPKRWQKIFKSRLVELLVSYGNTFFVVLIVILVLLVIDAVREIRKYDDVTEKVNLQNNPGAMEHFHMKLFRAQRNLYIAGFSLLLSFLLRRLVTLISQQATLLASNEAFKKQAESASEAAKKYMEENDQLKKGAAVDGGKLDVGNAEVKLEEENRSLKADLQKLKDELASTKQKLEKAENQVLAMRKQSEGLTKEYDRLLEEHAKLQAAVDGPMDKKEE
B21: Immediate early response 3-interacting protein 1 (other)
chain: MAFTLYSLLQAALLCVNAIAVLHEERFLKNIGWGTDQGIGGFGEEPGIKSQLMNLIRSVRTVMRVPLIIVNSIAIVLLLLFG

target: SLC41A1 (human); assay: split-ubiquitin method screen (DUALmembrane SU-YTH) for SLC41A1 complex-forming partners
Sequence (chain, as listed by the source limits assumed): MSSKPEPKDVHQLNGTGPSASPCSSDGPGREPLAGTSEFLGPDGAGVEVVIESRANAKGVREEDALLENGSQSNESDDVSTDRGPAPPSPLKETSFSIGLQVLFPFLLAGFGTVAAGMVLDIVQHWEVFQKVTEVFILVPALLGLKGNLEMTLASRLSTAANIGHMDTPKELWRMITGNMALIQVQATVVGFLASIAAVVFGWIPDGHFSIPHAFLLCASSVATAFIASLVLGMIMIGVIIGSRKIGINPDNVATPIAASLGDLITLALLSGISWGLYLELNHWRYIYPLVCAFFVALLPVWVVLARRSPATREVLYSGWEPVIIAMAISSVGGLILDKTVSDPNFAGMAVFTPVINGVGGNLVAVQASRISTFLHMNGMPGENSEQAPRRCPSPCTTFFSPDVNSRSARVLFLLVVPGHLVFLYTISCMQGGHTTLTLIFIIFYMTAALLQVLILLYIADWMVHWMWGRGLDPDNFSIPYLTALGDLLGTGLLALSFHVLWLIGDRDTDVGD

| Binder | occurrence [clones] |
| --- | --- |
| B1 | 2 |
| B2 | 5 |
| B3 | 2 |
| B4 | 11 |
| B5 | 2 |
| B6 | 2 |
| B7 | 4 |
| B8 | 2 |
| B9 | 1 |
| B10 | 2 |
| B11 | 2 |
| B12 | 2 |
| B13 | 3 |
| B14 | 1 |
| B15 | 4 |
| B16 | 1 |
| B17 | 1 |
| B18 | 1 |
| B19 | 1 |
| B20 | 10 |
| B21 | 3 |
